Results published in publication PMC10541312 (The Journal of Experimental Medicine, 2023).
Changes are numbered by the printed parent chain. Names and notes keep the numbering of the source.

Experiments:
Assay in all cases: BLI; biotinylated CD123 ECD wt and variants captured on streptavidin biosensors; IL-3 as analyte, 500 to 7.8 nM in PBS pH7.4; association 300 s; steady-state analysis
Conditions in all cases: both partners purified
[1] = molecular target: T1, CD123 S59R ECD (amino acids 19–305), soluble protein (human, UniProt P26951 19-305, S59R, biotinylated (Biotinylation kit Type B) in the IL-3 BLI only)
T1 construct: human CD123 extracellular domain (ECD; amino acids 19–305); source: produced and purified by Icosagen
T1 sequence (looked up): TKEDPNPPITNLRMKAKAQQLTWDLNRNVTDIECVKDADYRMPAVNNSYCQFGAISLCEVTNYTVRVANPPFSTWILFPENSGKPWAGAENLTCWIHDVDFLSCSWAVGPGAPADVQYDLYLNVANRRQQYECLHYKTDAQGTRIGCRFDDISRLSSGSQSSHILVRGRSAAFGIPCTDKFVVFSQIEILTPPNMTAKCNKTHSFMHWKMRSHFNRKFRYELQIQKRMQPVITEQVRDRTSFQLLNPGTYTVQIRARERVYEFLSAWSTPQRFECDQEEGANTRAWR

[2] = molecular target: T2, CD123 S59E ECD (amino acids 19–305), soluble protein (human, UniProt P26951 19-305, S59E, biotinylated (Biotinylation kit Type B) in the IL-3 BLI only)
T2 construct: human CD123 extracellular domain (ECD; amino acids 19–305); source: produced and purified by Icosagen
T2 sequence (looked up): T1 sequence (looked up) with R41E

[3] = molecular target: T3, CD123 E51K ECD (amino acids 19–305), soluble protein (human, UniProt P26951 19-305, E51K, biotinylated (Biotinylation kit Type B) in the IL-3 BLI only)
T3 construct: human CD123 extracellular domain (ECD; amino acids 19–305); source: produced and purified by Icosagen
T3 sequence (looked up): T1 sequence (looked up) with E33K, R41S

[4] = molecular target: T4, CD123 S59F ECD (amino acids 19–305), soluble protein (human, UniProt P26951 19-305, S59F, biotinylated (Biotinylation kit Type B) in the IL-3 BLI only)
T4 construct: human CD123 extracellular domain (ECD; amino acids 19–305); source: produced and purified by Icosagen
T4 sequence (looked up): T1 sequence (looked up) with R41F

[5] = molecular target: T5, CD123 R84E ECD (amino acids 19–305), soluble protein (human, UniProt P26951 19-305, R84E, biotinylated (Biotinylation kit Type B) in the IL-3 BLI only)
T5 construct: human CD123 extracellular domain (ECD; amino acids 19–305); source: produced and purified by Icosagen
T5 sequence (looked up): T1 sequence (looked up) with R41S, R66E

[6] = molecular target: T6, CD123 S59Y ECD (amino acids 19–305), soluble protein (human, UniProt P26951 19-305, S59Y, biotinylated (Biotinylation kit Type B) in the IL-3 BLI only)
T6 construct: human CD123 extracellular domain (ECD; amino acids 19–305); source: produced and purified by Icosagen
T6 sequence (looked up): T1 sequence (looked up) with R41Y

[7] = molecular target: T7, CD123 E51A ECD (amino acids 19–305), soluble protein (human, UniProt P26951 19-305, E51A, biotinylated (Biotinylation kit Type B) in the IL-3 BLI only)
T7 construct: human CD123 extracellular domain (ECD; amino acids 19–305); source: produced and purified by Icosagen
T7 sequence (looked up): T1 sequence (looked up) with E33A, R41S

[8] = molecular target: T8, CD123 E51T ECD (amino acids 19–305), soluble protein (human, UniProt P26951 19-305, E51T, biotinylated (Biotinylation kit Type B) in the IL-3 BLI only)
T8 construct: human CD123 extracellular domain (ECD; amino acids 19–305); source: produced and purified by Icosagen
T8 sequence (looked up): T1 sequence (looked up) with E33T, R41S

[9] = molecular target: T9, CD123 R84T ECD (amino acids 19–305), soluble protein (human, UniProt P26951 19-305, R84T, biotinylated (Biotinylation kit Type B) in the IL-3 BLI only)
T9 construct: human CD123 extracellular domain (ECD; amino acids 19–305); source: produced and purified by Icosagen
T9 sequence (looked up): T1 sequence (looked up) with R41S, R66T

[10] = molecular target: T10, CD123 wt ECD (amino acids 19–305), soluble protein (human, UniProt P26951 19-305, biotinylated (Biotinylation kit Type B) in the IL-3 BLI only)
T10 construct: human CD123 extracellular domain (ECD; amino acids 19–305); also called wt CD123; source: produced and purified by Icosagen
T10 sequence (looked up): T1 sequence (looked up) with R41S

[11] = molecular target: T11, CD123 S59P ECD (amino acids 19–305), soluble protein (human, UniProt P26951 19-305, S59P, biotinylated (Biotinylation kit Type B) in the IL-3 BLI only)
T11 construct: human CD123 extracellular domain (ECD; amino acids 19–305); source: produced and purified by Icosagen
T11 sequence (looked up): T1 sequence (looked up) with R41P

[12] = molecular target: T12, CD123 E51Q ECD (amino acids 19–305), soluble protein (human, UniProt P26951 19-305, E51Q, biotinylated (Biotinylation kit Type B) in the IL-3 BLI only)
T12 construct: human CD123 extracellular domain (ECD; amino acids 19–305); source: produced and purified by Icosagen
T12 sequence (looked up): T1 sequence (looked up) with E33Q, R41S

[13] = molecular target: T13, CD123 R84Q ECD (amino acids 19–305), soluble protein (human, UniProt P26951 19-305, R84Q, biotinylated (Biotinylation kit Type B) in the IL-3 BLI only)
T13 construct: human CD123 extracellular domain (ECD; amino acids 19–305); source: produced and purified by Icosagen
T13 sequence (looked up): T1 sequence (looked up) with R41S, R66Q

binding result [1]: binds
binding result [2]: binds
binding result [3]: binds
binding result [4]: binds
binding result [5]: binds
binding result [6]: binds
binding result [7]: binds
binding result [8]: binds
binding result [9]: binds
binding result [10]: binds
binding result [11]: binds
binding result [12]: binds
binding result [13]: binds
B1: IL-3 (ligand, human, UniProt P08700 20-152, looked up)
chain: APMTQTTPLKTSWVNCSNMIDEIITHLKQPPLPLLDFNNLNGEDQDILMENNLRRPNLEAFNRAVKSLQNASAIESILKNLLPCLPLATAAPTRHPIHIKDGDWNEFRRKLTFYLKTLENAQAQQTTLSLAIF
notes: human interleukin-3, recombinant, Sino Biological PN 11858-H08H; also called interleukin-3; human IL-3; source: bought: Sino Biological (PN 11858-H08H)
